Measured values reported in publication PMC9027083.

What follows are substances tested against recombinant MBP-EDIII of DENV2 (Dengue virus 2 (strain Thailand/16681/84)) (assay: SPR).

Kd [nM] | koff [s⁻¹] | kon [M⁻¹ s⁻¹] | Substance
12.3 | 0.00274 | 222000 | 1A1D-2 Fab A54E-Y105R double mutant
203 | 0.0195 | 96200 | 1A1D-2 Fab Y105R.H
41.9 | 0.00822 | 197000 | 1A1D-2 Fab A54E.H
